Where “and” joins values, the source holds several entries; their conditions need not be identical. Equal values may be shown once.
Tests used:
Format in all cases: in vivo, mouse
[1] = system: xenografted MDA-MB-468 human breast adenocarcinoma tumors; experiment: MDA-MB-468 xenograft efficacy in female nude mice (Example 4)
Procedure: The anti-tumor activity of DP002-HC4LC5-ADC was evaluated as a single agent in female nude mice bearing xenografted MDA-MB-468 human breast adenocarcinoma tumors.
(§1) Each mouse was inoculated with 5×10^6 MDA-MB-468 tumor cells (in 0.1 mL, 1:1 with Matrigel) at the right flank by subcutaneous administration under sterile conditions. When the tumors reached a volume of ˜150 mm^3, mice were randomized into one of 7 treatment groups (6 mice per group), as outlined in Table 12, and treatments began. All doses of DP002-HC4LC5-ADC were administered by intravenous injection via tail vein injection.
(§2) Tumor size and animal body weight were measured twice per week. Clinical signs were recorded daily. Tumors were measured using a caliper in two dimensions (i.e., length (a) and width (b)), and tumor volumes were estimated from measurements of the two diameters of the individual tumors as follows: Tumor Volume (mm^3)=(a×b^2)/2.
(§3) Average tumor growth curves for each treatment group were plotted with the observation time on the X-axis, and corresponding tumor volume (geometric mean) on the Y-axis. A two-tailed t-test was used to analyze the statistical significance of any differences between the treatment groups and the control group. Tumor Growth Inhibition (TGI) was calculated after each tumor volume measurement according to the formula: % TGI=(TVcn−TVtn)/TVcn×100, where TVtn and TVcn are the mean tumor Volume of treated and control groups, respectively. Body weight change (CBW %) was calculated after each body weight measurement according to the formula: CBW %=(BWn−BW0)/BW0×100, where BWn is the body weight at day n and BW0 is the body weight at day 0 respectively.

[2] = Body weight and tolerability in xenografted nude mice (Example 4)
Procedure: as §1, §2, §3

[3] = Side effects in xenografted NOD/SCID mice (Example 3); details: 1 mg/kg or 4 mg/kg intravenous, single dose on Day 0
Procedure: The efficacies of two anti-TROP2-MMAE antibody drug conjugates, DP002-HC1LC5-ADC (DAR ˜2) and DP002-HC4LC5-ADC (DAR ˜1.6-2.3), in inhibiting tumor growth in mice bearing human MDA-MB-468 breast adenocarcinoma tumor xenografts were tested. DP002-HC1LC5-ADC comprises an anti-TROP antibody that comprises HC 1 (SEQ ID NO: 52) and LC5 (SEQ ID NO: 62); DP002-HC4LC5-ADC comprises an anti-TROP antibody that comprises HC 4 (SEQ ID NO: 44) and LC5 (SEQ ID NO: 62). Briefly, 48 NOD/SCID mice (female, 6-8 weeks of age) were implanted with 0.1 ml MDA-MB-468 cells (lx 10^7 cell/ml). When the tumors sizes reached above 181 mm^3 (34 days after tumor inoculation), the mice were sorted randomly into 7 groups (6 mice/group) and treated according to the schedule provided in Table 10 below: […]

[4] = 2 mg/kg IV once on Day 0, n = 6 unless specified
[5] = 4 mg/kg IV once on Day 0, n = 6 unless specified
[6] = 4 mg/kg IV once on Day 0, outlier animal excluded
[7] = 2 mg/kg IV Day 0 + 1 mg/kg IV Days 7, 14

B1: DP002-HC4LC5-ADC: anti-TROP2-MMAE antibody drug conjugate (DAR ~1.6-2.3) of antibody with HC4 and LC5 (SEQ ID NO: 62) (conjugate)
VH: EVQLVQSGAEVKKPGESLKISCKGSGYTFTDYSINWVRQMPGKGLEWMGVISTYYGDASYNQKFKGQVTISADKSISTAYLQWSSLKASDTAMYYCARYGDGYNQFDYWGQGTLVTVSS
light: DIQMTQSPSSLSASVGDRVTITCRVSESVDSYGNNFMHWYQQKPGKAPKLLIYRASNLESGVPSRFSGSGSGTDFTFTISSLQPEDIATYYCQQSYEDPYTFGGGTKLEIKRTVAAPSVFIFPPSDEQLKSGTASVVCLLNNFYPREAKVQWKVDNALQSGNSQESVTEQDSKDSTYSLSSTLTLSKADYEKHKVYACEVTHQGLSSPVTKSFNRGEC
modifications: MMAE conjugate
Question: Which results are given for B1?
Answer: Number of mice demonstrating full tumor regression at Week 8 following first dose [1, 4]: 2; Number of mice demonstrating full tumor regression at Week 9 following first dose [1, 4]: 2; Number of mice demonstrating full tumor regression at Week 10 following first dose [1, 4]: 2; Number of mice demonstrating full tumor regression at Week 11 following first dose [1, 4]: 2/6 and 2; Number of mice demonstrating full tumor regression at Week 12 following first dose [1, 4]: 1 (n = 5); % of mice with tumor regression at the end of the study ([1]; 4 mg/kg IV as a single dose on Day 0): 66%; % TGI Day 70 ([1]; 4 mg/kg IV once on Day 0): 78.49%; Tumor Volume (mm^3, Mean ± SEM) Day 70 ([1]; 4 mg/kg IV once on Day 0): 293.26 mm^3 and 293.26 ± 288.40** mm^3; Tumor Weight (g, Mean ± SEM) Day 84 ([1]; 4 mg/kg IV once on Day 0): 0.346 ± 0.341 g; Number of mice demonstrating full tumor regression at Week 4 following first dose [1, 5]: 4; Number of mice demonstrating full tumor regression at Week 5 following first dose [1, 5]: 4; Number of mice demonstrating full tumor regression at Week 6 following first dose [1, 5]: 4; Number of mice demonstrating full tumor regression at Week 7 following first dose [1, 5]: 4; Number of mice demonstrating full tumor regression at Week 8 following first dose [1, 5]: 4; Number of mice demonstrating full tumor regression at Week 9 following first dose [1, 5]: 4; Number of mice demonstrating full tumor regression at Week 10 following first dose [1, 5]: 4; Number of mice demonstrating full tumor regression at Week 11 following first dose [1, 5]: 4/6 and 4; Number of mice demonstrating full tumor regression at Week 12 following first dose [1, 5]: 4; TGI on Day 70, excluding the outlier [1, 6]: 99.64%; average tumor size on Day 70, excluding the outlier [1, 6]: 4.89 mm^3; BWC (%) Day 70 (body weight change vs Day 0) ([2]; 1 mg/kg IV Days 0, 7, 14, 21): 8.95%; Body Weight (g, Mean ± SEM) Day 70 ([2]; 1 mg/kg IV Days 0, 7, 14, 21): 21.70 ± 0.30 g; Body Weight (g, Mean ± SEM) Day 84 ([2]; 1 mg/kg IV Days 0, 7, 14, 21): 21.24 ± 0.26 g; Drug-related Death ([2]; 1 mg/kg IV Days 0, 7, 14, 21): 0; average body weight increase (%) on Day 84 compared to Day 0 ([2]; 1 mg/kg IV Days 0, 7, 14, 21): 6.66%; average body weight increase on Day 70 compared to Day 0 ([2]; 1 mg/kg IV Days 0, 7, 14, 21): 1.76 g; average body weight increase on Day 84 compared to Day 0 ([2]; 1 mg/kg IV Days 0, 7, 14, 21): 1.30 g; BWC (%) Day 70 (body weight change vs Day 0) ([2]; 1 mg/kg IV once on Day 0): 15.09%; Body Weight (g, Mean ± SEM) Day 70 ([2]; 1 mg/kg IV once on Day 0): 22.01 ± 0.50 g; Body Weight (g, Mean ± SEM) Day 84 ([2]; 1 mg/kg IV once on Day 0): 22.06 ± 0.64 g; Drug-related Death ([2]; 1 mg/kg IV once on Day 0): 0; average body weight increase (%) on Day 84 compared to Day 0 ([2]; 1 mg/kg IV once on Day 0): 12.37%; average body weight increase on Day 70 compared to Day 0 ([2]; 1 mg/kg IV once on Day 0): 2.87 g; average body weight increase on Day 84 compared to Day 0 ([2]; 1 mg/kg IV once on Day 0): 2.92 g; BWC (%) Day 70 (body weight change vs Day 0) [2, 7]: 8.89%; Body Weight (g, Mean ± SEM) Day 70 [2, 7]: 21.18 ± 0.49 g; Body Weight (g, Mean ± SEM) Day 84 [2, 7]: 21.31 ± 0.46 g; Drug-related Death [2, 7]: 0; average body weight increase (%) on Day 84 compared to Day 0 [2, 7]: 10.24%; average body weight increase on Day 70 compared to Day 0 [2, 7]: 1.72 g; average body weight increase on Day 84 compared to Day 0 [2, 7]: 1.85 g; BWC (%) Day 70 (body weight change vs Day 0) ([2]; 2 mg/kg IV once on Day 0): 11.00%; Body Weight (g, Mean ± SEM) Day 70 ([2]; 2 mg/kg IV once on Day 0): 21.63 ± 0.39 g; Body Weight (g, Mean ± SEM) Day 84 ([2]; 2 mg/kg IV once on Day 0): 21.75 ± 0.55 g; Drug-related Death ([2]; 2 mg/kg IV once on Day 0): 0; average body weight increase (%) on Day 84 compared to Day 0 ([2]; 2 mg/kg IV once on Day 0): 10.84%; average body weight increase on Day 70 compared to Day 0 ([2]; 2 mg/kg IV once on Day 0): 2.14 g; average body weight increase on Day 84 compared to Day 0 ([2]; 2 mg/kg IV once on Day 0): 2.26 g; BWC (%) Day 70 (body weight change vs Day 0) ([2]; 4 mg/kg IV once on Day 0): 10.87%; Body Weight (g, Mean ± SEM) Day 70 ([2]; 4 mg/kg IV once on Day 0): 21.72 ± 0.44 g; Body Weight (g, Mean ± SEM) Day 84 ([2]; 4 mg/kg IV once on Day 0): 20.96 ± 0.55 g; Drug-related Death ([2]; 4 mg/kg IV once on Day 0): 0; average body weight increase (%) on Day 84 compared to Day 0 ([2]; 4 mg/kg IV once on Day 0): 6.99%; average body weight increase on Day 70 compared to Day 0 ([2]; 4 mg/kg IV once on Day 0): 2.13 g; average body weight increase on Day 84 compared to Day 0 ([2]; 4 mg/kg IV once on Day 0): 1.37 g; tolerability in mice ([2]; maximum cumulative dose of 4 mg/kg IV (single or split doses)): well tolerated; side effects based on changes in body weight, survival and gross observations [3]: No obvious side effects

Reference: US12458818B2, “Anti-trophoblast cell surface antigen 2 (TROP2) antibodies and antibody drug conjugates comprising same” (CSPC MEGALITH BIOPHARMACEUTICAL CO., LTD., priority 2019, dated 2025)
